Data published in patent publication US20250197496A1.

T1: human ULBP2 (26-216) P41A on yeast (human) (UniProt Q9BZM5)
T1 sequence: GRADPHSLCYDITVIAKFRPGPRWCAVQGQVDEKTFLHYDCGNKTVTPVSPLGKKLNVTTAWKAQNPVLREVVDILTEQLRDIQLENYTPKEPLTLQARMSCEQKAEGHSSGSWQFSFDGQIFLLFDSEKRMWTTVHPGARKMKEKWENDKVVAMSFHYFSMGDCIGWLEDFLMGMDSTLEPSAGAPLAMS

T2: human ULBP2 (26-216) R44A on yeast (human) (UniProt Q9BZM5)
T2 sequence: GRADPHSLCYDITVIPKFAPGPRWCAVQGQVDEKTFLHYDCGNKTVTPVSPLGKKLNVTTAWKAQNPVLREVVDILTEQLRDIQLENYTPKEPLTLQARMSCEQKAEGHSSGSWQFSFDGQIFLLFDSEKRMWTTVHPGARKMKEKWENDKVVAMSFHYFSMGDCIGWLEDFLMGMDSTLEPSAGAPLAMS


What was measured:
[1] = target: T1, human ULBP2 (26-216) P41A on yeast (human); assay: yeast display FACS, 1 nM
[2] = target: T2, human ULBP2 (26-216) R44A on yeast (human); assay: yeast display FACS, 1 nM
[3] = target: cynomolgus ULBP2 (26-216) displayed on yeast (cynomolgus); assay: flow cytometry on yeast displaying ULBP2; unstained control 385
[4] = target: Cynomolgus ULBP2 (26-216) fused to hIgG1 Fc (cynomolgus; human); assay: SPR, biotinylated antigen on SA chip

Row | Gate 1 Freq. of Total [1] [%] | Gate 2 Freq. of Total [1] [%] | Gate 3 Freq. of Total [1] [%] | Gate 1 Freq. of Total [2] [%] | Gate 2 Freq. of Total [2] [%] | Gate 3 Freq. of Total [2] [%] | MFI [3] | Kd [4] [nM] | koff [4] [s⁻¹] | kon [4] [M⁻¹ s⁻¹] | Binder
1 | 0.052 | 0.32 | 2.61 | 0.19 | 0.8 | 1.58 | 551 | – | – | – | A06 (antibody, V domains shown) VH: EVQLVQSGAEVKKPGESLKISCKGSGYAFSTSWMNWVRQMPGKGLEWMGRIYPGDGDTNYNGNFKGQVTISADKSISTAYLQWSSLKASDTAMYYCARGGELRLEAMDSWGQGTLVTVSS VL: EIVMTQSPATLSLSPGERITLSCSASSSIHSNYLHWYQQKPGQAPRLLIYRTSNLASGIPARFSGSGSGTDFTLTISSLQPEDFAVYYCQQGFSIPFTFGQGTKLEIK
2 | 0.098 | 0.41 | 4.73 | – | – | – | 11700 | 0.534 | 0.00182 | 3.41e+06 | E12 (antibody, V domains shown) VH: QVQLVQSGAEVKKPGASVKVSCKASGYTFTNYDINWVRQAPGQGLEWMGWIYPGDGSTYYNEKFKGRVTMTRDTSTSTVYMELSSLRSEDTAVYYCARSGDYGLYYFDYWGQGTLVTVSS VL: EIVLTQSPATLSLSPGERATLSCRASQSIGTSIHWYQQKPGQAPRLLIYFASESISGIPARFSGSGSGTDFTLTISSLEPEDFAVYYCQQSNSWPLYTFGGGTKVEIK
